# Assay results reported in PMC12122801 (Nature Communications, 2025).
# B1: Mycobacterium smegmatis acyl carrier protein AcpM (MSMEG_4326) (natural protein)
# chain: MAATQEEIIAGLAEIIEEVTGIEPSEVTPEKSFVDDLDIDSLSMVEIAVQTEDKYGVKIPDEDLAGLRTVGDVVAYIQKLEEENPEAAAALREKFAADQ
# modifications: 4'-phosphopantetheine (Ppant) covalently attached to Ser41 via a phosphodiester (holo-form)
# Target: Mycobacterium tuberculosis MmpL5 (Rv0676c) with a C-terminal 1×FLAG tag (Mycobacterium tuberculosis, UniProt P9WJV1)
# Assay: cryo-EM structure
# Chain of Mycobacterium tuberculosis MmpL5 (Rv0676c) with a C-terminal 1×FLAG tag (P9WJV1 whole entry): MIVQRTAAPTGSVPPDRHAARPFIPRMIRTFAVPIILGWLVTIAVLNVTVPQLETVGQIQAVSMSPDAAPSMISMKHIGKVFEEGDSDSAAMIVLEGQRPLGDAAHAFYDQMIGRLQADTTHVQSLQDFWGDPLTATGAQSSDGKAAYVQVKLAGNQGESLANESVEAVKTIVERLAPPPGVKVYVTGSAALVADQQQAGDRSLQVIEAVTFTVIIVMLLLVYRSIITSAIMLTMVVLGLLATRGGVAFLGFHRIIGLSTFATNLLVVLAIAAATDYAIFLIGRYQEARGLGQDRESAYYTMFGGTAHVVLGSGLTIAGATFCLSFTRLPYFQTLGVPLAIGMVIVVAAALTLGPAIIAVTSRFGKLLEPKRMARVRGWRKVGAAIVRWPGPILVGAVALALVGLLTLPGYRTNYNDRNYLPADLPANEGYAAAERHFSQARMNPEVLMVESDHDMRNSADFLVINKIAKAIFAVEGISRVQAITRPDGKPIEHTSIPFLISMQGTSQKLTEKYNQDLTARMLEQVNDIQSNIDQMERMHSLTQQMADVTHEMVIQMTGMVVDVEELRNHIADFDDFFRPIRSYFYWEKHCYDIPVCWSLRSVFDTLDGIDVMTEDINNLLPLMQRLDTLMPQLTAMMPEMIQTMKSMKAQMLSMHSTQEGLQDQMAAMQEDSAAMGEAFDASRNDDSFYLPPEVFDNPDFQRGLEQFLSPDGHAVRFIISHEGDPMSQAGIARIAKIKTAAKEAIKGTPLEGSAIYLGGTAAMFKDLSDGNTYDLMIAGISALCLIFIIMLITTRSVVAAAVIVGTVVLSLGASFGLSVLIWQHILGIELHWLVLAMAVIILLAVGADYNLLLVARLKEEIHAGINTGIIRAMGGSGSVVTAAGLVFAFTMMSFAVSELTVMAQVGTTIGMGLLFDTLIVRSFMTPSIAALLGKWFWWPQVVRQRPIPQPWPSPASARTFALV
binder,measurement,value
B1,binding result,binds
